{
  "source": "patent US20200377604",
  "key": {"[1]": {"test": "gel filtration of the Fc, mAU at 280 nm against time; low, broad peak at 19.477 min"}, "[2]": {"test": "gel filtration of the Fc, mAU at 280 nm against time; low, broad peak at 19.455 min"}},
  "data": [
    {"protein": "knob Fc F241S/F243R (protein) DKTHTSPPSPAPELLGGPSVSLRPPKPKDTLMISRTPEVTCVVVDVSHEDPEVKFNWYVDGVEVHNAKTKPREEQYNSTYRVVSVLTVLHQDWLNGKEYKCKVSNKALPAPIEKTISKAKGQPREPQVYTLPPSREEMTKNQVSLWCLVKGFYPSDIAVEWESNGQPENNYKTTPPVLDSDGSFFLYSKLTVDKSRWQQGNVFSCSVMHEALHNHYTQKSLSLSPGK", "values": [
      {"measurement": "Area of the small peak ahead of the monomer peak (dimer position; not labelled Dimer on the sheet)", "setting": "[1]", "result": "Area: 1943.99"}
    ]},
    {"protein": "knob Fc F241R/F243S (protein) DKTHTSPPSPAPELLGGPSVRLSPPKPKDTLMISRTPEVTCVVVDVSHEDPEVKFNWYVDGVEVHNAKTKPREEQYNSTYRVVSVLTVLHQDWLNGKEYKCKVSNKALPAPIEKTISKAKGQPREPQVYTLPPSREEMTKNQVSLWCLVKGFYPSDIAVEWESNGQPENNYKTTPPVLDSDGSFFLYSKLTVDKSRWQQGNVFSCSVMHEALHNHYTQKSLSLSPGK", "values": [
      {"measurement": "Area of the small peak ahead of the monomer peak (dimer position; not labelled Dimer on the sheet)", "setting": "[2]", "result": "Area: 3287.62"}
    ]}
  ]
}
